B1: TpsB (natural protein, Aspergillus niger, UniProt Q00217 1-480, looked up)
chain: MAANGSSSEGDHRLLIVSNRLPITIRRSGGGKYEFSMSSGGLVTGLSGLSKTTTFQWYGWPGLEVPEDEIDSVKQRLQEEFNATPVFMDDKLADRHYNGFSNSILWPLLHYHPGEIVFDEAAWDAYREANRLFAKTIAHEAREGDLVWVHDYHLMLLPEVLREELAALGKNNIRIGFFLHTPFPSSEIYRILPVRSQLLRGVLQCDLIGFHTYDYARHFLSCCSHILGLVTTPSSVKFKDRSVAVGAFPIGIDPDKFTEGLKSPKVQNRIASLENKFQGTKLMVSVDRLDYIKGIPQKLHALEVFLSQHPEWVGKVVLVQVAVPSRQDVEEYQNLRAVVNELVGRINGKFGTVDYMPIHFMHKSVSFDELIALYAASDACVVSSTRDGMNLVSFEYVATQQKRKGVLILSEFAGAAQSLNGSIVVNPWNTEELASAYHEAVSMSDDLRAQKFEKLYKYISKYTSAFWGKSFVAELSKCST
notes: TpsB, putative trehalose-6-phosphate synthase of Aspergillus niger (Tps1 ortholog), gene tpsB, ANI_1_1078064; full-length cDNA / open reading frame; Cloned into both vectors; each fusion carries one of the two fragments (T25 or T18), not both; also called tpsB gene product; trehalose-6-phosphate synthase TpsB; source: bacterial two-hybrid fusion (pKT25 and pUT18C), in E. coli BTH101
B2: TpsA (natural protein, Aspergillus niger, UniProt Q00075 1-517, looked up)
chain: MPSLENPTFQNEARLLLVSNRLPITIKRSDDGRYDFSMSSGGLVSGLSGLSKSTTFQWYGWPGLEVPEEEIPVVKERLKQEYNAVPVFIDDELADRHYNGFSNSILWPLFHYHPGEITFDESAWEAYKEANRLFAKAVAKEVQDGDLIWVHDYHLMLLPEMLREEIGDSKENVKIGFFLHTPFPSSEIYRILPVRNELLLGVLHCDLIGFHTYDYTRHFLSACSRLLGLTTTPNGIEFQGKIIACGAFPIGIDPEKFEEGLKKEKVQKRIAMLEQKFQGVKLMVGVDRLDYIKGVPQKLHALEVFLSDHPEWVGKVVLVQVAVPSRQDVEEYQNLRAVVNELVGRINGKFGTVEFMPIHFLHKSVNFDELIALYAVSDACIVSSTRDGMNLVAYEYIATQKKRHGVLVLSEFAGAAQSLNGSIIINPWNTEELAGAYQEAVTMSDEQRALNFSKLDKYVNKYTSAFWGQSFVTELTRISEHSAEKFHAKKASFSDNNSENGEPSNGVETPAQEQVAQ
notes: TpsA, putative trehalose-6-phosphate synthase of Aspergillus niger (Tps1 ortholog), gene tpsA, ANI_1_1406074; full-length cDNA / open reading frame; Cloned into both vectors; each fusion carries one of the two fragments (T25 or T18), not both. cDNA from A. niger N402 background; also called tpsA gene product; trehalose-6-phosphate synthase TpsA; source: bacterial two-hybrid fusion (pKT25 and …)

Assays:
Test in all cases: two-hybrid; bacterial adenylate cyclase two-hybrid (BACTH System Kit); pKT25 and pUT18C fusions co-transformed into E. coli BTH101; LB with ampicillin, kanamycin and 0.5 mM IPTG, 100 rpm, 20°C, 72 h; β-galactosidase assay as units/mg dry weight; three to four independent assays
TpsC (Aspergillus niger) = molecular target: TpsC (Aspergillus niger)
TpsB = molecular target: B1
TppA (Aspergillus niger) = molecular target: TppA (Aspergillus niger)
TpsA = molecular target: B2; settings: partners not purified
[1] = molecular target: the molecule itself

Row | Molecule | β-galactosidase activity (two-hybrid) (units/mg dry weight bacteria) (TpsC (Aspergillus niger)) | β-galactosidase activity (two-hybrid) (units/mg dry weight bacteria) (TpsB) | β-galactosidase activity (two-hybrid) (units/mg dry weight bacteria) (TppA (Aspergillus niger)) | β-galactosidase activity (two-hybrid) (TpsA) | β-galactosidase activity (two-hybrid) [1] | β-galactosidase activity (two-hybrid) (TpsB; partners not purified)
1 | TpsC (natural protein) | 1210 | 688 | – | – | – | –
2 | TppA (natural protein) | – | 691 | – | – | – | –
3 | B1 | 441 | – | 581 | 1590 units/mg dry weight bacteria | 1780 units/mg dry weight bacteria | –
4 | B2 | – | – | – | – | 418 units/mg dry weight bacteria | 1750 units/mg dry weight bacteria

Source: publication PMC3991884, “Trehalose synthesis in Aspergillus niger: characterization of six homologous genes, all with conserved orthologs in related species” (BMC Microbiology, 2014)
